Assay [1] has as its target E. coli ribose-phosphate pyrophosphokinase (EcKPRS) (E. coli (strain K12)). Put plainly: crystal structure; 2.22 Å, space group C222_(1), three molecules in the asymmetric unit; hexamer from 3 molecules of the asymmetric unit and 3 symmetry related molecules; crystallised with 0.2 M magnesium chloride, 0.1 M HEPES pH 7.5, 30% PEG 400, 1 mM ADP, 291 K.
Assay [2] has the same target. Put plainly: SEC; size exclusion chromatography, data not shown.

Consider “E. coli ribose-phosphate pyrophosphokinase (EcKPRS) (enzyme)”, for which the stoichiometry N in assay [1] and in assay [2] was 6 throughout.

The record behind these values is article PMC6332680.
